The source of these data is article PMC5477490.

The experiment deals with 3E1 Fab, P01857;P01834. As to conditions: parent: est. 100; read off a plot.
Turning to “full-length, wild-type HA from A/Washington/05/2011 (H1N1) HA2:D19A”, the percent of parent stood at 100%.

Regarding “full-length, wild-type HA from A/Washington/05/2011 (H1N1) HA1:H38S”, the percent of parent came out at 97%.

Consider “full-length, wild-type HA from A/Washington/05/2011 (H1N1) HA2:Y34M”, for which the percent of parent stood at 100%.

Turning to “full-length, wild-type HA from A/Washington/05/2011 (H1N1) HA1:H18L”, the percent of parent worked out at 100%.
